Data published in patent US20160333075A1.

Molecular target: enterovirus 71 (EV71) virions (enterovirus 71)
Assay: cell-based or functional assay

| Binder | Inhibitory concentration 50 (IC50), Vero ATCC [µg/mL] | Inhibitory concentration 50 (IC50), Vero NIBSC [µg/mL] | PRNT50 of original hybridoma [µl/ml] | end point PRNT50, Vero ATCC [ng/mL] | end point PRNT50, Vero NIBSC [ng/mL] |
| --- | --- | --- | --- | --- | --- |
| monoclonal antibody E18 produced by the hybridoma cell line EV18/4 (antibody, V domains shown) VH: QIQLVQSGPELKKPGETVKISCKASGYTFTRYGMSWVKQAPGKGLKWMGWINTYSGVPTYADDFKGRFAFSLETSASTAYLQINNLKNEDTATYFCARRGYSNYYPMDFWGQGTSVTVSS VL: DIKMTQSPSSMYASLGERVTITCKASQDIKSYLSWYQQKPWKSPKTLIYYAKNLADGVPSRFSGSGFGQDYSLTISSLESDDTATYYCLQHGESPYTFGSGTKLEIKR | 0.272 | 0.181 | 0.625 | 625 | 312 |
| monoclonal antibody E20 produced by the hybridoma cell line EV20/5 (antibody, V domains shown) VH: EVQLVESGGGLVKPGGSLKLSCAASGFTFNIYAMSWVRQTPEKRLEWVATISDGGSYTYYPDNVKGRFTISRDNAKNNLYLQMSHLKSEDTAMYYCVRDRGNYYSRAFPYAYWGQGTLVTVSA VL: SIVMTQTPKFLPVSAGDRVTMTCKASQSVGNNVAWYQQKSGQSPKLLIYYASNRYTGVPDRFTGSGSGTDFTFTISSVQVEDLAVYFCQQHYSSPPTFGAGTKLELK |  | 9.95 | 5 |  | 10000 |
